Measurements: PMC4359366, “Lis1 regulates dynein by sterically blocking its mechanochemical cycle” (eLife, 2014)
Substitutions are numbered along the chain they refer to. Names may count otherwise.

B1: Lis1^R301A (natural protein)
chain: MTNWQQQLPLTDTQKNELDKSVLRYLNWNYKQTVRHEHAQDYESVRHAIVTLSGFLLQESVDRQEFISNNDTSNESMVDIDELLLPKKWNSIVRLQKKIIELEQNTETLVSQIKDLNTQVSELAQFKPTTSNGTSAHNVLKWIPRNLPSCLINVESSVTSVKLHPNLPIVFVATDHGKLYAFDLFNYTIPLASLQSHTKAITSMDVLFTNYTNSSKKNYLVIVTASKDLQIHVFKWVSEECKFQQIRSLLGHEHIVSAVKIWQKNNDVHIASCSRDQTVKIWDFHNGWSLKTFQPHSQWVASIDVLGDYIISGSHDTTLRLTHWPSGNGLSVGTGHEFPIEKVKFIHFIEDSPEIRFRTPSTDRYKNWGMQYCVSASRDRTIKIWEIPLPTLMAHRAPIPNPTDSNFRCVLTLKGHLSWVRDISIRGQYLFSCADDKSVRCWDLNTGQCLHVWEKLHTGFVNCLDLDVDFDSNVTPRQMMVTGGLDCKSNVFMR
B2: Lis1^K437A (natural protein)
chain: B1 chain with A301R, K437A
B3: Lis1 (Pac1), wild type, dimer (natural protein, S. cerevisiae, UniProt P39946 1-494, looked up)
chain: B1 chain with A301R
notes: Lis1 ortholog Pac1 (PAC1), S. cerevisiae; genomic PAC1 copy with ZZ-Tev in front; A Tev site follows the ZZ tag and a TEV buffer is named for the Lis1 purification, so the ZZ tag was probably cut off; also called WT Lis1; wild-type Lis1
B4: Lis1^R275A (natural protein)
chain: B1 chain with R275A, A301R

What was measured:
[1] = target: GST-dynein_(331kDa) (S. cerevisiae); assay: SEC; 400–800 nM dynein and 475–800 nM Lis1 mixed for 10 min at 4°C; Superose 6 PC 3.2/30; 50 mM Tris–HCl pH 8.0, 150 mM potassium acetate, 2 mM magnesium acetate, 1 mM EGTA, 1 mM DTT; fractions on SDS-PAGE with SYPRO Red, bands quantified in ImageJ
[2] = target: T1, short linker dynein, GFP-3xHA-DYN1_(314kDa)-gs-DHA, monomeric (S. cerevisiae, UniProt P36022 1365-4092); assay: as above; settings: both partners purified
T1 construct: ZZ tag probably cut off by Tev; also called monomeric short linker dynein; short linker construct; not shown: GFP, N-terminal, kept; 3xHA, N-terminal, kept
T1 sequence (P36022 1365-4092): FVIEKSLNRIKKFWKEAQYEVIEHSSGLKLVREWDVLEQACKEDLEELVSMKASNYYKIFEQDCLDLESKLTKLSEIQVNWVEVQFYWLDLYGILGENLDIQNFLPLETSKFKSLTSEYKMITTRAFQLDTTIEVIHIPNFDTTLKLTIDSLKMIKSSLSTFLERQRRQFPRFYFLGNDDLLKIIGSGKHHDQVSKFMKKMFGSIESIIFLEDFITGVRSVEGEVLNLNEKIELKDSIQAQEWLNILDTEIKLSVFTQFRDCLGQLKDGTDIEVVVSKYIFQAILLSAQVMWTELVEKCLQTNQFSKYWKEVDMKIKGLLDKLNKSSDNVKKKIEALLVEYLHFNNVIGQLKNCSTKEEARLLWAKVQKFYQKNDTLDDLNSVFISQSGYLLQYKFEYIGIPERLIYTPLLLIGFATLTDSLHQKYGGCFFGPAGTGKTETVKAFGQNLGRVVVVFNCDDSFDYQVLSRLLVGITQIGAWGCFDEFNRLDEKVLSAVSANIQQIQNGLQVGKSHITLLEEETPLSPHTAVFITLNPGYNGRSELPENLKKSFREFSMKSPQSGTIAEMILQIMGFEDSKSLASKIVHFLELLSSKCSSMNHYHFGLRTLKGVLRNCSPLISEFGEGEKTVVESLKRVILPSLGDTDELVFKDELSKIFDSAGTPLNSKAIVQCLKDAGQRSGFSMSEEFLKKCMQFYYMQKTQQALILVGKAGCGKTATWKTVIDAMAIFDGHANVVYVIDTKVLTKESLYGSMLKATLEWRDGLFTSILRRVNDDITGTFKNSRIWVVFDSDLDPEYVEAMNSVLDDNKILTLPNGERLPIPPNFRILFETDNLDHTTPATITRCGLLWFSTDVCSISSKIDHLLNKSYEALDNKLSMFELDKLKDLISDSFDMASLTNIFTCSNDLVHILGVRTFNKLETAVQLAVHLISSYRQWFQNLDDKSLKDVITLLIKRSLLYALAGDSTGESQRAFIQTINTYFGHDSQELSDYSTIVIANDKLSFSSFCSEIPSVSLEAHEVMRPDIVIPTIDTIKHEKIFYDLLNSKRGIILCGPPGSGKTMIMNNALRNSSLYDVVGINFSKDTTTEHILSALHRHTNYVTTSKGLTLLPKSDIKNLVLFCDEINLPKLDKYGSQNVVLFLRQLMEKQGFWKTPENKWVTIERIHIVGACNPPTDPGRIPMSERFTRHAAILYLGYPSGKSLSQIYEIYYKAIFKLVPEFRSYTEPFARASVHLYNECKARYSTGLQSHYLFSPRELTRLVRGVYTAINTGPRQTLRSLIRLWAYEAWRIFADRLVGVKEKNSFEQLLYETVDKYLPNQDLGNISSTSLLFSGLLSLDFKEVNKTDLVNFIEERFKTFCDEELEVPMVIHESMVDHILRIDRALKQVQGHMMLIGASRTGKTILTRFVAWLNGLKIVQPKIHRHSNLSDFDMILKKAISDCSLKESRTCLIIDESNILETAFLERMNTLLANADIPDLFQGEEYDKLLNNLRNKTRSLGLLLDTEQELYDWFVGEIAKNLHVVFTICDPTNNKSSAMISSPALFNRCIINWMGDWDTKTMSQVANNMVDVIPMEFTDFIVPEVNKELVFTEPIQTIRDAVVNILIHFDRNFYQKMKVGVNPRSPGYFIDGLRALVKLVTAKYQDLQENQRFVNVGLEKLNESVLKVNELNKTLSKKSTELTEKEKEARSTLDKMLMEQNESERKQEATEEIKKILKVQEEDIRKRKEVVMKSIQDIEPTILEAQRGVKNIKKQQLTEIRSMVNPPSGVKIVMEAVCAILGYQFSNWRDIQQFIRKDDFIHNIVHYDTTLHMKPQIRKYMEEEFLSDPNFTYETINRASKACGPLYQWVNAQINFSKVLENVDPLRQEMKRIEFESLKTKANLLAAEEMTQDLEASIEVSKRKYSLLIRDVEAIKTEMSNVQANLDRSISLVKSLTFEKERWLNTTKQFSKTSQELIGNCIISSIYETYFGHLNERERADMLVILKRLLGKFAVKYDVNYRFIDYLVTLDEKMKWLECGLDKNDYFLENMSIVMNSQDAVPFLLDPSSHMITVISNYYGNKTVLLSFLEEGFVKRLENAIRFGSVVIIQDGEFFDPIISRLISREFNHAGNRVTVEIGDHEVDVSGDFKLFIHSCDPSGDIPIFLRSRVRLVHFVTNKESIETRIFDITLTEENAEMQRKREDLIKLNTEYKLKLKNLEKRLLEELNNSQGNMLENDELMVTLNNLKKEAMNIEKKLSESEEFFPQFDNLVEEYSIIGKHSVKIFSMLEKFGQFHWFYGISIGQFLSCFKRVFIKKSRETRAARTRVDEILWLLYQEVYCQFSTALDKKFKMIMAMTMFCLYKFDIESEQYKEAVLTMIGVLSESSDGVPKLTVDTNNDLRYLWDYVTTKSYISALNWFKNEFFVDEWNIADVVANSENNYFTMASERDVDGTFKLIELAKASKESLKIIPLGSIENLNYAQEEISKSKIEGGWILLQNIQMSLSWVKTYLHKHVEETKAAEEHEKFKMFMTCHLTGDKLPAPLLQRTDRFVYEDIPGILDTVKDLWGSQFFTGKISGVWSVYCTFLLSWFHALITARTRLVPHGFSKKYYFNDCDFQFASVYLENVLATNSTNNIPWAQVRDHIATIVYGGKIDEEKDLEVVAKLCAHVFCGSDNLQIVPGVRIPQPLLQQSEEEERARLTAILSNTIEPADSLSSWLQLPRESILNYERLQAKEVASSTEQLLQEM

[3] = target: T2, short linker dynein DYN1_(314kDa) K3438E, R3445E, F3446D (AAA5 linker-docking mutant), monomeric (S. cerevisiae, UniProt P36022 1365-4092, K3438E | R3445E | F3446D); assay: as above; settings: both partners purified
T2 construct: Cytoplasmic dynein heavy chain (DYN1), S. cerevisiae, 314 kDa motor construct DYN1_(314kDa) (linker truncated at residue 1365) with the AAA5 mutations; also called short linker dynein with AAA5 mutations; GFP-3xHA-DYN1_(314kDa)^K3438E,R3445E,F3446D-gs-DHA
T2 sequence (P36022 1365-4092 K3438E/R3445E/F3446D): as the sequence (P36022 1365-4092) above, with K2074E, R2081E, F2082D counted along it

[4] = target: monomeric dynein motor domain, dynein_(331kDa) without tags on the linker (S. cerevisiae); assay: cryo-EM structure; cryo-negative stain EM, single-particle 3D reconstruction; monomeric dynein (80–120 nM) pre-incubated for 10 min with Lis1 dimer at a 1.5-fold excess (120–180 nM); no nucleotide (apyrase 0.14 U/ml, 15 min); 2% uranyl formate
[5] = target: T3, short linker dynein, DYN1_(314kDa), without GFP (S. cerevisiae, UniProt P36022 1365-4092); assay: as above; settings: both partners purified
T3 construct: ZZ tag probably cut off by Tev; also called short linker construct
T3 sequence (P36022 1365-4092): as the sequence (P36022 1365-4092) above

Row | Binder | GST-dynein (331kDa) share of the dynein:Lis1 band ratio in the SEC complex peak [1] | Lis1 share of the dynein:Lis1 band ratio in the SEC complex peak [1] | binding result [2] | binding result [3] | stoichiometry N (Lis1 propeller per dynein motor domain) [4] | binding result [5]
1 | B1 | 0.88 | 0.12 |  |  |  | 
2 | B2 | 0.85 | 0.15 |  |  |  | 
3 | B3 | 0.82 | 0.18 | binds | binds | 1 | binds
4 | B4 | 0.85 | 0.15 |  |  |  | 
